Values joined by “and” are separate entries in the source; they are usually repeats but may differ in a detail not shown here. Equal entries are not always repeated. Where two headings read alike, the source gives them in different places.

We go through 21 molecules from patent US20230304010A1, “COMPOSITIONS AND METHODS FOR TREATING VIRAL INFECTIONS” (priority 2020, published 2023).

For assay [1], the target named is ACE2, Q9BYF1.
In assay [2] the target is SARS-CoV-2 Spike (SARS-CoV-2), P0DTC2. Nature of the assay: inhibitor screening kit; ACE2:SARS-CoV-2 Spike (Example 4 assay).
The target is the same in assay [3]. As to the kind of experiment: inhibitor screening kit; SARS-CoV-2 Spike:ACE2 (Example 3 assay).
For assay [4] the target is unchanged. Nature of the assay: ACE2:SARS-CoV-2 Spike inhibitor screening kit (Example 3).
The target is the same in assay [5].
Assay [6] shares this target. As to the kind of experiment: SARS-CoV-2 Spike:ACE2 inhibitor screening kit (Example 4).
Assay [7] has the same target. As to the kind of experiment: ACE2:SARS-CoV-2 Spike kit, ACE2 on plate, Spike-Fc added; competitor ACE2.
Assay [8] has the same target. This is another data set of the same source.
For assay [9] the target is unchanged. As to the kind of experiment: SARS-CoV-2 Spike:ACE2 inhibitor screening kit (Example 4); Table 7 prints 38.6.
For assay [10], the target named is ACE2, Q9BYF1. Nature of the assay: inhibitor screening kit, ADGN-106 nanoparticles (Example 6, section A).
Assay [11] concerns the target ACE2, Q9BYF1. Nature of the assay: inhibitor screening kit, ADGN-106 nanoparticles (Example 6, section B).

ACE2, Q9BYF1, sequence (Q9BYF1 18-740 limits assumed): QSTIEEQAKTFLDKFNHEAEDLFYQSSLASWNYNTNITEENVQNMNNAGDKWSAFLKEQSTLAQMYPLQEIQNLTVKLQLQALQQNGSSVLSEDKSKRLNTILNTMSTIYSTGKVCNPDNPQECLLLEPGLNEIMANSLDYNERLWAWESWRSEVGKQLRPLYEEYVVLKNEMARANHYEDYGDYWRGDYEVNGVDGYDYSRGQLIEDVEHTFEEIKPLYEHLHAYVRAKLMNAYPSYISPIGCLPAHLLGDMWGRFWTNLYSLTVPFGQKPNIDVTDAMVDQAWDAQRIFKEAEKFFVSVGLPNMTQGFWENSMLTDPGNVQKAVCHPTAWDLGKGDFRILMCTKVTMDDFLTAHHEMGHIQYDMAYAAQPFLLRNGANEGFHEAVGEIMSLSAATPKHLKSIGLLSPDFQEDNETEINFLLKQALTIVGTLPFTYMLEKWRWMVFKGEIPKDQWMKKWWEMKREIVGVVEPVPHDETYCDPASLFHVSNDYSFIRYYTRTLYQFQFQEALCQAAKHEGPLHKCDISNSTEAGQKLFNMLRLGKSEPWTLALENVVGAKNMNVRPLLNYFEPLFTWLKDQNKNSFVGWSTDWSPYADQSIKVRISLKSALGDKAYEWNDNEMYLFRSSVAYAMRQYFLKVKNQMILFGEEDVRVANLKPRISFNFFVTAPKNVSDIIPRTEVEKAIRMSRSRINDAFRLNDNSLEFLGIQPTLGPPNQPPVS

B1: Seq21 (LNCOV-13)/ADGN-106 nanoparticle complex (peptide)
peptide 1: GFQPTNGVKLWRALWRLWRSLWRLLWK
peptide 2: LWRALWRLWRSLWRLLWK
modifications: not checked
B1: the IC50 (usually the concentration that gives 50% inhibition) in the assay with ACE2, Q9BYF1 [1] was 5.2 nM and 11.2 nM.

As for KTFLDKFNHEAEDLFYS (modifications not checked) [Seq26 (LNCOV-34)], the IC50 in assay [2] worked out at 2100 nM; in assay [3], 1900 nM.

For the molecule NMTQGFWENSMLTD (modifications not checked) [Seq30 (LNCOV-36)], the IC50 in [2] and in assay [3] was greater than 10000 nM each time.

B2: Seq39 (LNCOV-31) (peptide)
peptide: EQAKTFLDKFNHEAEDLFPKWSAFLKEQSTLAQMYGLWRALWRLWRSLWRLLWK
modifications: not checked
As to B2, the fold increase of efficiency over the uncoupled peptide (Seq27/Seq28) in [4] is 1.4 fold. Moreover, the 50% inhibitory concentration (IC50) is 68.4 nM in [2] and 55.2 nM in assay [3].

B3: Seq32 (LNCOV-21)/ADGN-106 nanoparticle complex (protein)
peptide 1: IEEQAKTFLDKFNHEAEDLFYQSLWRALWRLWRSLWRLLWK
peptide 2: LWRALWRLWRSLWRLLWK
modifications: not checked
Turning to B3, in assay [5], the IC50 was 24.5 nM and 7.2 nM.

Turning to NMTQGFWENSMLTDLWRALWRLWRSLWRLLWK (modifications not checked) [Seq37 (LNCOV-29)], the IC50 is 645 nM in assay [2] and greater than 1000 nM in [3].

For the molecule TAWDLGKGDFRI (modifications not checked) [Seq29 (LNCOV-35)], the IC50 in assay [2] and in assay [3] was greater than 10000 nM in each case.

For the molecule KTFLDKFNHEAEDLFLWRALWRLWRSLWRLLWK (modifications not checked) [Seq34 (LNCOV-25)], the IC50 in assay [2] and in [3] was greater than 1000 nM throughout.

B4: Seq35 (LNCOV-26)/ADGN-106 nanoparticle complex (protein)
peptide 1: KTFLDKFNHEAEDLFYSLWRALWRLWRSLWRLLWK
peptide 2: LWRALWRLWRSLWRLLWK
modifications: not checked
As for B4, the half-maximal inhibitory concentration (IC50) in [5] was 217 nM and 55.4 nM.

On to KTFLDKFNHEAEDLFYSLWRALWRLWRSLWRLLWK (modifications not checked) [Seq35 (LNCOV-26)], for which the IC50 in assay [2] is 728 nM; in [3], 546 nM.

With KTFLDKFNHEAEDLF (modifications not checked) [Seq25 (LNCOV-33)], the IC50 in assay [2] was found to be 1900 nM; in [3], 2500 nM.

In turn, EQAKTFLDKFNHEAEDLFLWRALWRLWRSLWRLLWK (modifications not checked) [Seq33 (LNCOV-18)] yielded a fold more potent than SBP-1 coupled to ADGN-106 in [6] of 8 fold. This molecule registered a fold more potent than free SBP-1 in assay [6] of 14 fold. Also, the IC50 in assay [7] came to 18.4 nM; in assay [2], 18.4 nM; in assay [3], 178 nM.

With EQAKTFLDKFNHEAEDLF (modifications not checked) [Seq24 (LNCOV-19)], the IC50 in assay [8] amounted to 570000 nM; in assay [6] it was 570 nM; in [3] it was 1300 nM.

As to KTFLDKFNHEAEDLFPGPKWSAFLKEQSTLAQMYG (modifications not checked) [Seq28 (LNCOV-20)], the concentration for half-maximal inhibition (IC50) amounted to 50 nM in assay [4]; 38.6 nM in [7]; 38.6 nM in assay [2]; 58.7 nM in [3]; 38.5 nM in assay [9]. Moreover, the fold more potent than SBP-1 coupled to ADGN-106 in [4] was 6 fold; in [6] it was 3.5 fold. Further, the fold more potent than free SBP-1 in [4] came out at 15 fold; in [6], 7 fold.

B5: Seq17 (LNCOV-15)/ADGN-106 nanoparticle complex (peptide)
peptide 1: NGVEGFNKLWRALWRLWRSLWRLLWK
peptide 2: LWRALWRLWRSLWRLLWK
modifications: not checked
As for B5, the IC50 with ACE2, Q9BYF1 [1] was 3.4 nM and 2.7 nM. In the assay with ACE2, Q9BYF1 [10], the fold more potent than SBP-1-ADGN-106/ADGN-106 complex is 6 fold and the fold more potent than SBP-1 peptide/ADGN-106 complex was determined as 40 fold. In the assay with ACE2, Q9BYF1 [11], this molecule returned a fold more potent than SBP-1-ADGN-106/ADGN-106 complex of 4 fold and a fold more potent than SBP-1 peptide/ADGN-106 complex of 35 fold.

B6: Seq20 (LNCOV-24)/ADGN-106 nanoparticle complex (peptide)
peptide 1: SYGFQPTNGVLWRALWRLWRSLWRLLWK
peptide 2: LWRALWRLWRSLWRLLWK
modifications: not checked
On to B6, for which the IC50 with ACE2, Q9BYF1 [1] is 3.7 nM and 8.7 nM. Also, in the assay with ACE2, Q9BYF1 [10], the fold more potent than SBP-1-ADGN-106/ADGN-106 complex came out at 6 fold and the fold more potent than SBP-1 peptide/ADGN-106 complex was 40 fold.

For NMTQGFWENPGGPTAWDLGK (modifications not checked) [Seq31 (LNCOV-37)], the 50% inhibitory concentration (IC50) is 25000 nM in [4], 25000 nM in [6], greater than 10000 nM in [2] and greater than 10000 nM in assay [3].

B7: Seq40 (LNCOV-32) (peptide)
peptide: KTFLDKFNHEAEDLFPKWSAFLKEQSTLAQMYGLWRALWRLWRSLWRLLWK
modifications: not checked
With B7, the fold increase of efficiency over the uncoupled peptide (Seq27/Seq28) in [4] stood at 1.4 fold. Moreover, the values for the IC50 in assay [2] and in assay [3] were 85.4 nM and 45.1 nM, respectively.

For TAWDLGKGDFRILWRALWRLWRSLWRLLWK (modifications not checked) [Seq36 (LNCOV-28)], the IC50 in assay [2] and in assay [3] was greater than 1000 nM in each case.

In the case of EQAKTFLDKFNHEAEDLFPKWSAFLKEQSTLAQMYG (modifications not checked) [Seq27 (LNCOV-27)], the IC50 in assay [4] stood at 50 nM; in [2] it was 37.4 nM; in assay [3], 66.1 nM. For the same molecule, the fold more potent than SBP-1 coupled to ADGN-106 in assay [4] is 6 fold; in [6] it was 3.5 fold. Besides, the fold more potent than free SBP-1 is 15 fold in [4] and 7 fold in assay [6].

B8: Seq38 (LNCOV-30)/ADGN-106 nanoparticle complex (protein)
peptide 1: NMTQGFWENPGGPTAWDLGKLWRALWRLWRSLWRLLWK
peptide 2: LWRALWRLWRSLWRLLWK
modifications: not checked
As to B8, the IC50 in assay [5] was 91.4 nM and 49.7 nM.
